Laboratory results from patent publication US20090100532A1, “TRANSGENIC MICE EXPRESSING HYPERSENSITIVE NICOTINIC RECEPTORS” (CALIFORNIA INSTITUTE OF TECHNOLOGY, priority 2007, published 2009).

Experiments:
α4-CFP (mouse) = α4-CFP (mouse) (UniProt O70174); test: acceptor photobleaching FRET, N2a cells, untagged β2 coexpressed
[1] = molecular target: CFP-labeled GluCl β subunit (UniProt Q17328); test: acceptor photobleaching FRET, N2a cells; specificity control
β2-CFP (mouse) = β2-CFP (mouse) (UniProt Q9ERK7); test: acceptor photobleaching FRET, N2a cells, within the same α4β2 pentamer
Chain of β2-CFP (mouse) (Q9ERK7 26-501): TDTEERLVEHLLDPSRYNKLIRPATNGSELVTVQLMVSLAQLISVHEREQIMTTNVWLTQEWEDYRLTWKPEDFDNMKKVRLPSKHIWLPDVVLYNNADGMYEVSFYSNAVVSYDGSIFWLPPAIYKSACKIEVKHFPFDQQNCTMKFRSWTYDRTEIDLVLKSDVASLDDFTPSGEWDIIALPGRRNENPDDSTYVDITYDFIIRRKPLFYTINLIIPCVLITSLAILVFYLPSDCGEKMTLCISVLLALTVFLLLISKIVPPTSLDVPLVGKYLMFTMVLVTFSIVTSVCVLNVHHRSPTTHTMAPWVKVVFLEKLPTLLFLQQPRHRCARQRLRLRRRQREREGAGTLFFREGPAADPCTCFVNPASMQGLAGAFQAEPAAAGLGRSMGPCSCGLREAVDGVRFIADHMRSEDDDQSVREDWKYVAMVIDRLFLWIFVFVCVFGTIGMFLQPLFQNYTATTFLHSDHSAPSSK

Chain of CFP-labeled GluCl β subunit (Q17328 23-434): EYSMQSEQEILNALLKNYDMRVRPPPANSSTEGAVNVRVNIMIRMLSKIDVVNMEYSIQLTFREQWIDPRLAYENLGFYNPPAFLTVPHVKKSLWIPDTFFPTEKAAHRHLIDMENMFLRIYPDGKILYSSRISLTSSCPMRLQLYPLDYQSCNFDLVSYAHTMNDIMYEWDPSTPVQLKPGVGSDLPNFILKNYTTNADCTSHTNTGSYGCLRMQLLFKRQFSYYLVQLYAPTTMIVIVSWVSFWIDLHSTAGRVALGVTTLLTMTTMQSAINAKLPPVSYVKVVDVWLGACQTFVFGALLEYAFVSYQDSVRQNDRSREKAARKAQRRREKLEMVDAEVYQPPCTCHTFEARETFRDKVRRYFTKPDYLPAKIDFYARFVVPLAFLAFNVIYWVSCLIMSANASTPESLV
Chain of β2-YFP (Q9ERK7 26-501): as the sequence (Q9ERK7 26-501) above
Chain of α4-CFP (mouse) (O70174 31-629): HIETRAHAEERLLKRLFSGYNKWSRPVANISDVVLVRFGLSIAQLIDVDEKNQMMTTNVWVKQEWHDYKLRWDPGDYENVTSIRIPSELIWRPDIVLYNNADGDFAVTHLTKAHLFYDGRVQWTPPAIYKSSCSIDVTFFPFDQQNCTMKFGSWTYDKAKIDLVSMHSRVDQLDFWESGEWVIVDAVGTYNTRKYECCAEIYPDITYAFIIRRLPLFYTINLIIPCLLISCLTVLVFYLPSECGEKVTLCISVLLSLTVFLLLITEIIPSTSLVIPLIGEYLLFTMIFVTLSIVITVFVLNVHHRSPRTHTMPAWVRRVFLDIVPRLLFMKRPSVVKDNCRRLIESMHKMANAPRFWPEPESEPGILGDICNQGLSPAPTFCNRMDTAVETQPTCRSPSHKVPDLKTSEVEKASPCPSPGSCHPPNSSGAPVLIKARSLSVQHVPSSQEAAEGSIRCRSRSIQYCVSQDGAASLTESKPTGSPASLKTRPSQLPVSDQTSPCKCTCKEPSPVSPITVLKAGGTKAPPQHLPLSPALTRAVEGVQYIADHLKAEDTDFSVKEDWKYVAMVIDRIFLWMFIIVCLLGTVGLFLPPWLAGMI
Chain of α4-YFP (O70174 31-629): as above

Substance | FRET E [1] | further results
α4-YFP (from UniProt O70174 31-629) (receptor) | – | FRET E (α4-CFP (mouse)): 22.2%
α6-YFP^A405 (from UniProt Q9R0W9 31-405; Q9R0W9 406-494) (receptor) | 14% | –
β2-YFP (from UniProt Q9ERK7 26-501) (receptor) | – | FRET E (β2-CFP (mouse)): 16.3%
β3-YFP^P379 (from UniProt Q8BMN3 31-379; Q8BMN3 380-464) (receptor) | 6% | –
